Reference: publication PMC8971729 (2022)

B1: human CXADR Fc chimera protein (CAR) (Fc fusion)
chain: LSITTPEEMIEKAKGETAYLPCKFTLSPEDQGPLDIEWLISPADNQKVDQVIILYSGDKIYDDYYPDLKGRVHFTSNDLKSGDASINVTNLQLSDIGTYQCKVKKAPGVANKKIHLVVLVKPSGARCYVDGSEEIGSDFKIKCEPKEGSLPLQYEWQKLSDSQKMPTSWLAEMTSSVISVKNASSEYSGTYSCTVRNRVGSDQCLLRLNVVPPSNKAG

Columns and labels:
Assay in all cases: SPR
[1] = target: HAdV-D10 fiber knob protein (human adenovirus type 10 (HAdV-D10))
[2] = target: B1
[3] = target: T1, human CD46 protein (His tag) (human, UniProt P15529)
T1 chain: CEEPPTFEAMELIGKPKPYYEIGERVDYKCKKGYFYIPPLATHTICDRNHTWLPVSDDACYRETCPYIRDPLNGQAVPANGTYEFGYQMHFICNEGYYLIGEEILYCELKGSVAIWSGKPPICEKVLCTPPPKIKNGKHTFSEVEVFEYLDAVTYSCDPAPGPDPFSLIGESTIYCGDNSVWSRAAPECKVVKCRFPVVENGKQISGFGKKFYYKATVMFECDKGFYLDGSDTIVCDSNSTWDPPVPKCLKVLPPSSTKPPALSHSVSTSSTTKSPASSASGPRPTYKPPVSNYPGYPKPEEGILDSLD

[4] = target: T2, Human desmoglein-2 Fc chimera protein (DSG2) (human, UniProt Q14126)
T2 chain: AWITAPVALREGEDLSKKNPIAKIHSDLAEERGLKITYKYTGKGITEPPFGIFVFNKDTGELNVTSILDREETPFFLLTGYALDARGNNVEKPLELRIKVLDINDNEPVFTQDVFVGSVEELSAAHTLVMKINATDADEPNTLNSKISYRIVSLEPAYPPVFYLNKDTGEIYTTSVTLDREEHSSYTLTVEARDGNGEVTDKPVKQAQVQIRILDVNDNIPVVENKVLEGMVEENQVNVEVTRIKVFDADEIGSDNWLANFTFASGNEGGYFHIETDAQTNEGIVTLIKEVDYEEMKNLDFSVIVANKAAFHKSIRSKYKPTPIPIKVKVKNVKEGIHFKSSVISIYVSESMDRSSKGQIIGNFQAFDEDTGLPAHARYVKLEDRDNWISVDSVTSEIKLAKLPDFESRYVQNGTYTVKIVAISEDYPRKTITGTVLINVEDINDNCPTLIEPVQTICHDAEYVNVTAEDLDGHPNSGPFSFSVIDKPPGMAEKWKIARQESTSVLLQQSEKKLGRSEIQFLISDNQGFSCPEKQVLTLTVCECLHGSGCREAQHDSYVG

[5] = target: T1, human CD46 protein (His tag)

For B1, the koff [1] was 0.0019 s⁻¹.

B2: HAdV-C5 fiber knob protein (domain or fragment)
chain: KNNDKLTLWTTPAPSPNCRLNAEKDAKLTLVLTKCGSQILATVSVLAVKGSLAPISGTVQSAHLIIRFDENGVLLNNSFLDPEYWNFRNGDLTEGTAYTNAVGFMPNLSAYPKSHGKTAKSNIVSQVYLNGDKTKPVTLTITLNGTQETGDTTPSAYSMSFSWDWSGHNYINEIFATSSYTFSYIAQE
Binder B2 has a koff [2] of 0.0019 s⁻¹.

B3: HAdV-B3 fiber knob (domain or fragment)
chain: NSIALKNNTLWTGPKPEANCIIEYGKQNPDSKLTLILVKNGGIVNGYVTLMGASDYVNTLFKNKNVSINVELYFDATGHILPDSSSLKTDLELKYKQTADFSARGFMPSTTAYPFVLPNAGTHNENYIFGQCYYKASDGALFPLEVTVMLNKRLPDSRTSYVMTFLWSLNAGLAPETTQATLITSPFTFSYIREDD
In the case of B3, the koff [3] is reported as 0.025 s⁻¹, the Kd [4] is reported as 66.9 µM and the Kd [5] is reported as 0.16 µM.
